From paper PMC8299219 (Cell, 2021) come the findings set out here.

Read-outs that look alike come from different tables or passages of the source.

The target of experiment [1] is T1, SARS-CoV-2 S ectodomain trimer, prefusion-stabilized, 2P variant (Wrapp et al., 2020) (SARS-CoV-2, Wuhan-Hu-1, UniProt P0DTC2, stabilised).
Experiment [2] has as its target T1, SARS-CoV-2 S ectodomain trimer, …. In words: ELISA. A general note: ELISA stands for enzyme-linked immunosorbent assay.

B1: C882C6 (antibody, V domains shown)
VH: QVQLVESGGGVVQPGRSLRLSCAASGFTFSNFAIHWVRQAPGKGLEWVAVVSYDGGNKYYADSVKGRFTISRDNSKNTLYLQMNSLRAEDTSVYYCARSGSGNYYGWFDPWGQGTLVTVSS
VL: QSALTQPASVSGSPGQSITISCTGTSSDVGSYNLVSWYQQHPGKAPKLMIYEGSKRPSGVSNRFSGSKSGNTASLTISGLQAEDEADYYCCSYAGSSTWVFGGGTKLTVL
For the molecule B1, the binding result in experiment [1] is “binds”.

B2: C83B10 (antibody, V domains shown)
VH: QVQLVESGGGVVQPGRSLRLSCAASGFTFSIYAIHWVRQAPGKGLEWVALISYDGSNKYYADSVKGRFTISRDNSKNTLYLQMNSLRAEDTAVYYCARARGGSYSDAFDIWGQGTMVTVSS
VL: not shown
For the molecule B2, in experiment [1], the binding result is given as “binds”.

B3: C102A5 (antibody, V domains shown)
VH: QVQLVESGGGVVQPGRSLRLSCAASGFTFSTYAMHWVRQAPGKGLEWVAVISYDGSNKYYADSVKGRFTISRDNSKNTLYLQMNSLRAEDTAVYYCARDLGTYRWFDPWGQGTLVTVSS
VL: DIQMTQSPSSVSASVGDRVTITCRASQGISSWLAWYQQKPGKAPKLLIYAASSLQSGVPSRFSGSGSGTDFTLTISSLQSEDFATYYCQQANSFPSFTFGPGTKVEIK
For B3, the binding result in experiment [1] is “binds”.

B4: C12B5 (antibody, V domains shown)
VH: QVQLVESGGGVVQPGRSLRLSCAASGFTFSSYGMHWVRQAPGKGLEWVAVIWYDGSNKYYADSVKGRFTISRDNSKNTLYLQMNSLRAEDTAVYYCARDLAVATQNDYWGQGTLVTVSS
VL: SYELTQPPSVSVSPGQTARITCSGDALPKKYAYWYQQKSGQAPVLVIYEDGKRPSGIPERFSGSSSGTMATLTISGAQVEDEADYYCYSTDSSGNRWVFGGGTKLTVL
Consider B4, for which, in experiment [1], the binding result is on record as “binds”.

B5: C81E12 (antibody, V domains shown)
VH: QVQLVESGGGVVQPGRSLRLSCAASGFTFSSYGMHWVRQAPGKGLEWVAVIWYDGSNKYYADSVKGRFTISRDNSKNTLYLQMNSLRAEDTAVYYCARDLRLGDHFDYWGQGTLVTVSS
VL: SYELTQPPSVSVSPGQTARITCSGDALPKKYAYWYQQKSGQAPVLVIYEDSKRPSGIPERFSGSSSGTMATLTISGAQVEDEADYYCYSTDSSGNHRVFGGGTKLTVL
B5: the binding result in experiment [1] was “binds”.

B6: mAb 4A8 (published; Chi et al., 2020) (antibody, V domains shown)
VH: QVQLVESGAEVKKPGASVKVSCKVSGYTLTELSMHWVRQAPGKGLEWMGGFDPEDGETMYAQKFQGRVTMTEDTSTDTAYMELSSLRSEDTAVYYCATSTAVAGTPDLFDYYYGMDVWGQGTTVTVSS
VL: EIVMTQSPLSSPVTLGQPASISCRSSQSLVHSDGNTYLSWLQQRPGQPPRLLIYKISNRFSGVPDRFSGSGAGTDFTLKISRVEAEDVGVYYCTQATQFPYTFGQGTKVDIK
B6: the binding result in experiment [2] is recorded as “binds”.

B7: G32M1 (antibody, V domains shown)
VH: QVQLVESGGGVVQPGRSLRLSCVASGFTFSSYGMHWVRQAPGKGLEWVAVIWYDGSNKYYADSVKGRFTISRDNSKNTLYLQMNSLRAEDTAVYYCAREYRSSWYNWFDSWGQGTLVTVSS
VL: SYELTQPPSVSVSPGQTARITCSGDALPKQYAYWYQQKPGQAPVMVIYKDSERPSGIPERFSGSSSGTTVTLTISGVQAEDEADYYCQSADSSGTSYVFGTGTKVTVL
Turning to B7, the binding result in experiment [1] is reported as “binds”.

B8: G32L8 (antibody, V domains shown)
VH: EVQLVQSGAEVKKPGESLKISCKGSGYSFTSYWIGWVRQMPGKGLEWMGIIYPGDSDTRYSPSFQGQVTISADKSISTAYLQWSSLKASDTAMYYCARRYAVYSSGWYYWYFDLWGRGTLVTVSS
VL: not shown
Take B8: the binding result in experiment [1] is on record as “binds”.

B9: C12I7 (antibody, V domains shown)
VH: QVQLQESDPGLVQPSETLSLTCTVSRGSISSYYWSWIRQPPGKGLEWIGYIYYSGSTNYNPSLKSRVTISVDTSKNQFSLKLSSVTAADTAVYYCARVGYYDSSAYLKLGSIDYWGQGILVTVSS
VL: not shown
In the case of B9, the binding result in experiment [1] is “binds”.

B10: G32C5 (antibody, V domains shown)
VH: QVQLVESGGGVVQPGRSLRLSCAASGFTFSSYAMHWVRQAPGKGLEWVAVISYDGSNKYYADSVKGRFTISRDNSKNTLYLQMNSLRAEDTAVYYCARGKSGSYFGSFDYWGQGTLVTVSS
VL: not shown
In the case of B10, the binding result in experiment [1] is “binds”.

B11: C81H4 (antibody, V domains shown)
VH: QVQLVESGGGVVQPGRSLRLSCAASGFTFSSYGMHWVRQAPGKGLEWVAVISYDGSNKYYADSVKGRFTISRDNSKNTLCLQMNSLRAEDTAVYYCAKGRGGSYYDAFDIWGQGTMVTVSS
VL: not shown
Turning to B11, the binding result in experiment [1] is “binds”.

B12: G32M2 (antibody, V domains shown)
VH: QVQLVESGGGVVQPGRSLRLSCAASGFTFSSYAMHWVRQAPGKGLEWVAVISYDGNNKYYADSVKGRFTISRDNSKNTLYLQMNSLRAEDTAMYYCARAKGGGYYYGMDVWGQGTTVTVSS
VL: SYELTQPPSVSVAPGQTARITCGGNNIGSKSVHWYQQKPGQAPVLVVYDDSDRPSGIPERFSGSNSGNTATLTISRVEAGDEADYYCQVWDSSSDPYWVFSGGTKLTVL
Take B12: the binding result in experiment [1] is listed as “binds”.

B13: C81C3 (antibody, V domains shown)
VH: EVQLVQSGAEVKKPGESLRISCKGSGYSFTSYWISWVRQMPGKGLEWMGRIDPSDSYTNYSPSFQGHVTISADKSISTAYLQWSSLKASDTAMYYCAIHGYYDSSGYYLPHGFDIWGQGTMVTVSS
VL: SYELTQPPSVSVAPGKTARITCGGNNIGSTSVHWYQQKPGQAPVLVVYDDGDRPSGIPERFSGSNSGNTATLTISRVEAGDEADYYCQVWDSSSDPNWVFGGGTKLTVL
Take B13: in experiment [1], the binding result is recorded as “binds”.

B14: C93E12 (antibody, V domains shown)
VH: QVQLVEAGGGVVQPGTSLRLSCAASGFTFSNYAIQWVRQAPGKGPEWVALISYDGSNKYYADPVKGRFTLSRDNSKNTLYLQMNSLRAEDTAVYYCARGIRGGYNDAFDIWGQGTMVTVSS
VL: DIQLTQSPSFLSASVGDRVTITCRASQGISSYLTWYQQKPGKAPKLLIYAASTLQSGVPSRFSGSGSGTEFTLTISSLQPEDFATYYCQQVTSYPITFGQGTRLEIK
Turning to B14, the binding result in experiment [1] was “binds”.

B15: G32B2 (antibody, V domains shown)
VH: QLQLQESGPGLVKPSETLSLTCTVSGGSISSSSYYWGWIRQPPGKGLEWIGSIYYSGSTYYNPSLKSRVTISVDTSKNQFSLKLSSVTAADTAVYYCARTVASYYDSSAYLTLGYFDYWGQGTLVTVSS
VL: SYELTQPPSVSVSPGQTARITCSGDALPKKYAYWYQQKSGQAPVLVIYEDSKRPSGIPERFSGSSSGTMATLTISGAQVEDEADYYCYSTDSSGNHNYVFGTGTKVTVL
For B15, the binding result in experiment [1] is reported as “binds”.

B16: C7I5 (antibody, V domains shown)
VH: EVQLLESGGGLVQPGGSLRLSCAASGFIFSNYVVSWVRQAPGKGLEWVSGISVNGDTTFYADSVKGRFTISRDNSKNTLYLQMNSLRAEDTAVYYCAKVRGYCSGGRGCMDVWGQGTTVTVSS
VL: DIQLTQSPSSLSPSVGDRVTITCRASQDIGNTLAWYQQKPGKAPNLLIYDASSLQSGVPSRFSGTVSGTDFTLTITSLQPEDFATYFCQQFNTYPALTFGGGTKVEIK
For B16, the binding result in experiment [1] was “binds”.

B17: C81E9 (antibody, V domains shown)
VH: QVQLVESGGGVVQPGRSLRLSCAASGFTFSSYAMHWVRQAPGKGLEWVAVISYDGSNKYYADSVKGRFTISRDNSKNTLFLQMNSLRPEDTAVYYCIAARNYYYMDVWGKGTTVTVSS
VL: not shown
As for B17, in experiment [1], the binding result is reported as “binds”.

B18: C30A8 (antibody, V domains shown)
VH: QVQLVESGGGLVKPGGSLRLSCAASGFTFSDSYMSWIRQAPGKGLEWVSYISSSSSYTNYADSVKGRFTISRDNAKNSLYLQMNSLRAEDTAVYYCARDRVPPYSSGWYYFDYWGQGTLVTVSS
VL: QSALTQPASVSGSPGQSITISCTGTSSDVGGYNYVSWYQQHPGKAPKLMIYEVSNRPSGVSNRFSGSKSDNTASLTISGLQAEDEADYYCSSYTSSSTYVFGTGTKVTVL
B18: in experiment [1], the binding result is “binds”.

B19: C30B10 (antibody, V domains shown)
VH: QVQLVESGGGVVQPGRSLRLSCAASGFTFSSYGMHWVRQAPGKGLEWVAVIWYDGSNKYYADSVKGRFTISRDNSKNTLYLQMNSLRAEDTAVYYCARDYPFSGSYYGDAFDIWGQGTMVTVSS
VL: SYELTQPPSVSVSPGQTARITCSGDALPKKYAYWYQQKSGQAPVLVIYEDSKRPSGIPERFSGSSSGTMATLTISGAQVEDEADYYCYSTDSSGNRWVFGGGTKLTVL
Take B19: the binding result in experiment [1] is on record as “binds”.

B20: G32B4 (antibody, V domains shown)
VH: not shown
VL: SYELTQPPSVSVSPGQTARITCSGDALPKKYAYWYQQKSGQAPVLVIYEDSKRPSGIPERFSGSSSGTMATLTISGAQVEDEADYYCYSTDSSGNLWVFGGGTKLTVL
On to B20, for which, in experiment [1], the binding result is given as “binds”.
